This is an account of results in patent publication US20210221875A1 (Chugai, published 2021).

Residue numbers refer to the chain shown, from its start.

Assay [1] concerns the target T1, Human aggrecan G1-IGD-G2 domain with Flag-tag on its C-terminus (human, UniProt P16112 17-675).
T1 construct: used unlabelled as Biacore analyte; also called human aggrecan G1-IGD-G2-Flag; human Aggrecan G1G2 flag
Description: BLI (Octet RED), biotin-labeled human aggrecan G1-IGD-G2-Flag on streptavidin sensor, 27 C.

For assay [2], the target named is T2, biotinylated plexin A1 (human, UniProt Q9UIW2 27-1253, biotin on the AviTag sequence (BirA co-expression)).
T2 construct: extracellular region of plexin A1 linked to AviTag and FLAG tag; also called biotin-labeled human plexin A1; human plexin A1
Description: BLI (Octet), in the same way as in Example 3. (Biolayer interferometry detects binding as a change in optical thickness at a sensor tip.)

Assay [3] addresses T3, human CD3ed-Fc (human).
T3 construct: human CD3 epsilon and human CD3 delta linked to a human antibody constant region, biotinylated in culture with BirA; also called CD3 epsilon delta heterodimer fused with the antibody constant region; biotin-labeled human CD3ed-Fc
T3 chain 1: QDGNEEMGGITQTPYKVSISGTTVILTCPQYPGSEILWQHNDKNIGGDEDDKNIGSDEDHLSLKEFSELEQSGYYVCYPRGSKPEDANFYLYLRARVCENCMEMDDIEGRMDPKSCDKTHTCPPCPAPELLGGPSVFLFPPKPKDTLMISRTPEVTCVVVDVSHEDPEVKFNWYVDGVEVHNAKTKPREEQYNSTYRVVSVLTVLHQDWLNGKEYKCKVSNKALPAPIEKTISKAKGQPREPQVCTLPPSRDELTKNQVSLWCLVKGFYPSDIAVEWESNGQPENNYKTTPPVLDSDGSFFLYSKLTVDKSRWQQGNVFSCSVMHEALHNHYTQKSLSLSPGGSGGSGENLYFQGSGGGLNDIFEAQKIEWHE
T3 chain 2: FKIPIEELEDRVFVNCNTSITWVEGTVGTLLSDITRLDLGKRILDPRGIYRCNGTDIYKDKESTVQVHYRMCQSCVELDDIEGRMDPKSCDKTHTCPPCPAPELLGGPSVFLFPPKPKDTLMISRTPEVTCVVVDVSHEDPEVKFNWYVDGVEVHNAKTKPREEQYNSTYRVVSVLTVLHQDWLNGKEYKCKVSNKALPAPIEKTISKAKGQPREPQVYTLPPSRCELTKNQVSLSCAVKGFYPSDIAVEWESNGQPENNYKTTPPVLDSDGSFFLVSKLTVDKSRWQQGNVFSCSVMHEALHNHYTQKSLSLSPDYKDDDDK
The experiment in a line: BLI (Octet RED), human CD3ed-Fc on the sensor.

T2 sequence (Q9UIW2 other isoform, or with tags, fused parts or gaps limits assumed): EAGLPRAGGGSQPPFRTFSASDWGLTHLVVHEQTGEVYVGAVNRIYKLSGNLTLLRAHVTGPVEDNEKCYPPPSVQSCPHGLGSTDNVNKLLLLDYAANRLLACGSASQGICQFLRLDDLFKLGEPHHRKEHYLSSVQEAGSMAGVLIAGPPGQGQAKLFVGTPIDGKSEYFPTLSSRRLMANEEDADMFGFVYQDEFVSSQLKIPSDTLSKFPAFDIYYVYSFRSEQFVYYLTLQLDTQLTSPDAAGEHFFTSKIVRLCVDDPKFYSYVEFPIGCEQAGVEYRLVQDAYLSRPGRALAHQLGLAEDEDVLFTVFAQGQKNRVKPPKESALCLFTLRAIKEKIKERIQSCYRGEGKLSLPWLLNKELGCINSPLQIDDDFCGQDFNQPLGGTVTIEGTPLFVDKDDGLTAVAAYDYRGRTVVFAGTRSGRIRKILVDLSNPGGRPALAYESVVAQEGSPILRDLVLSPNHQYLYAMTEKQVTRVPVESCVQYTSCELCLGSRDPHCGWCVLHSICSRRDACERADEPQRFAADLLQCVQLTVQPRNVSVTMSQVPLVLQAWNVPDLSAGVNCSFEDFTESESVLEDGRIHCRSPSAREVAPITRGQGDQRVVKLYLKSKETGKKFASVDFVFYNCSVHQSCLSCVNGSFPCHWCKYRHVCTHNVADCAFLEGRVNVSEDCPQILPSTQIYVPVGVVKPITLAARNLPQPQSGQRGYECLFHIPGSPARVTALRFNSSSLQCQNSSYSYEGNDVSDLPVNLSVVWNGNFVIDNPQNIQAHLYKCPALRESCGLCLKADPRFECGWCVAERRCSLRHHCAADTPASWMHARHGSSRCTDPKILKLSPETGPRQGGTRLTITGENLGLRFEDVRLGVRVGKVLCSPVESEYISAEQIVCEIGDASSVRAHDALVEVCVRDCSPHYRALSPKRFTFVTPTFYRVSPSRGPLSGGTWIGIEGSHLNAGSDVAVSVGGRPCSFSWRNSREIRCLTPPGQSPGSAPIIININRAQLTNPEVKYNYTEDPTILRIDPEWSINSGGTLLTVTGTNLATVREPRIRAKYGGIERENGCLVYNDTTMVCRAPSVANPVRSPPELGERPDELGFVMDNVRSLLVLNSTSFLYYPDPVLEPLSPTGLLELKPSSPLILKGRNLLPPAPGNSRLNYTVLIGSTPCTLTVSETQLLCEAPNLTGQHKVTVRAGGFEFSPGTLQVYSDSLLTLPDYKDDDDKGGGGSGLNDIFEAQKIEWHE

B1: hA2R3p.038-G1mISHI01/VK1.39-k0MT (antibody, human IgG1, kappa, V domains shown)
VH: QLQLVESGGGLVQAGGSLRLSCAASGRTFRTYAMGWFRQAPGKEREFVSSISGSGGSKIYADSVKGRFTISRDNAKDTVNLQMNSLKPEDTAVYYCAVARGYYGTMASDPGLYDYWGQGTQVTVSS
VL: DIQMTQSPSSLSASVGDRVTITCRASQSISSYLNWYQQKPGKAPKLLIYAASSLQSGVPSRFSGSGSGTDFTLTISSLQPEDFATYYCLQFDSYPLTFGGGTKVEIKR
As for B1, the binding result in assay [1] is recorded as “binds”.

B2: PX02-R4_017-G1mISHI01/VK1-39-k0MT (antibody, human IgG1, kappa, V domains shown)
VH: QVQLVESGGGLVQPGGSLRLSCTASGISFSISTMGWYRQAPGKQRELVATITSGGEAYYANSMKDRFTISRDNAENTVYLQMNRLKPEDSAVYYCNTKFPWSTDWNARGQGTQVTVSG
VL: B1 VL
notes: uncleaved; light chain printed once for the five molecules
On to B2, for which the binding result in assay [2] is listed as “no binding”.

B3: bC3edL1R1N164H01-G1mISHI01/VK1-39-k0MT (antibody, human IgG1, kappa, V domains shown)
VH: QVQLVESGGGLVQPGGSLRLSCAASGFTFDVYGMSWVRHSPGKGLEWVSTINWNGGSTYYAESMKGRFTISRDNAKNTVYLQMNSLKPEDTAVYYCAKFAPWDGDMEWGQGTQVTVSG
VL: B1 VL
notes: uncleaved
Consider B3, for which the binding result in assay [3] is “no binding”.

B4: bC3edL1R1N161H01-G1mISHI01/VK1-39-k0MT (antibody, human IgG1, kappa, V domains shown)
VH: QVQLVESGGGLVQPGGSLRLSCAASGFPFDNYVMSWVRQAPGKGLEWISAISWNGGSTYYAESMKGRFTISRDNAKSTLYLQMNSLKSEDTAVYYCAKEPRVYYSGSPDYWGQGTQVTVSG
VL: B1 VL
notes: uncleaved
Turning to B4, the binding result in assay [3] is recorded as “no binding”.

B5: bC3edL1R1N160H01-G1mISHI01/VK1-39-k0MT (antibody, human IgG1, kappa, V domains shown)
VH: QVQLVESGGGLVQPGGSLRLSCAASGFTFNHCWMYWVRQAPGKGLEWVSVINTDGGSAYYADSVKGRFTISRDNAKNTLYLQMNSLKSEDTAVYYCARDWAPLVDYYYGMDYWGKGTLVTVSG
VL: B1 VL
B5: in assay [3], the binding result is recorded as “no binding”.

B6: PX03-R2_006-G1mISHI01/VK1-39-k0MT (antibody, human IgG1, kappa, V domains shown)
VH: B2 VH with V2L, T52A, M63V, D65G
VL: B1 VL
notes: as for B2
B6: the binding result in assay [2] is given as “no binding”.

B7: PX03-R4_009-G1mISHI01/VK1-39-k0MT (antibody, human IgG1, kappa, V domains shown)
VH: B2 VH with V2L, T52A, M63V, D65G, D72E, N73Y, Y79F
VL: B1 VL
notes: as for B2
Consider B7, for which the binding result in assay [2] was “no binding”.
